One molecule from PMC6737914, “Dissection of GTPase-activating proteins reveals functional asymmetry in the COPI coat of budding yeast” (Journal of Cell Science, 2019) can be followed below.

The target in this assay is T1, TAP-purified coatomer (TAP-tagged β′-COP) (S. cerevisiae, UniProt P53622 1-1201; P41811 1-889; P40509 1-296; P41810 1-973; P32074 1-935; P43621 …).
T1 construct: α-COP subunit of coatomer, S. cerevisiae; β′-COP subunit of coatomer, S. cerevisiae, TAP-tagged; ε-COP subunit of coatomer, S. cerevisiae; β-COP subunit of coatomer, S. cerevisiae; γ-COP subunit of coatomer, S. cerevisiae; δ-COP subunit of coatomer, S. cerevisiae; ζ-COP subunit of coatomer, S. cerevisiae; The complex was released by TEV cleavage after the incubation with Glo3; also called …
The assay is described as follows: pull-down; TAP-immobilised COPI incubated with a molar excess of MBP-Glo3 (ΔAmpH) for 20 min at 4°C, washed, eluted by TEV cleavage; Coomassie staining and western blots. As to conditions: both partners purified. Background: Immunoblotting shows a protein as a band on a membrane.

B1: MBP-Glo3 (ΔAmpH), Glo3 (1–459) lacking its distal amphipathic helix (domain or fragment)
chain: not shown
notes: Glo3, S. cerevisiae, residues 1-459, without the distal amphipathic helix (printed as 459–493); After TEV elution of the complex the eluates were incubated with amylose resin to deplete MBP; also called Glo3 lacking a C-terminal amphipathic helix; source: E. coli Rosetta (DE3) or BL21 (pREP4), purified (Ni-IDA resin), dialysed
B1: the binding result is “binds”.
